Values belong to the binder of their own block, whether it stands above or below them.
Assays:
Assay in all cases: holdup assay
Design in all cases: key: below the threshold = too weak to quantify, mostly under pKd 3.1 to 4
Conditions in all cases: plain residues with an end cap or a label only (N-terminal biotin on a linker: ado-ado)
DLG3_1, Q92796 = molecular target: T1, DLG3_1, Q92796
T1 sequence (Q92796 125-227, limits assumed, looked up): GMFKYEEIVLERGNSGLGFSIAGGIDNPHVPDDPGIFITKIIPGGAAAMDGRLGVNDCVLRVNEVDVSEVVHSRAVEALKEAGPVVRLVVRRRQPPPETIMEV

PARD3B_1, Q8TEW8 = molecular target: T2, PARD3B_1, Q8TEW8
T2 sequence (Q8TEW8 196-299, limits assumed, looked up): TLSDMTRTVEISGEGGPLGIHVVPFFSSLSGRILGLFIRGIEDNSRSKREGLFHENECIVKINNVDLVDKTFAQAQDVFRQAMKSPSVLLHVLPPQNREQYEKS

GRIP1_4, Q9Y3R0 = molecular target: T3, GRIP1_4, Q9Y3R0
T3 sequence (Q9Y3R0 467-571, limits assumed, looked up): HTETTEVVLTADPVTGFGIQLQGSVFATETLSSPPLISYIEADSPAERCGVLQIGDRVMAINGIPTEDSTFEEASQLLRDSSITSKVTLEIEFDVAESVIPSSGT

DLG4_1, P78352 = molecular target: DLG4_1, P78352
GORASP2, Q9H8Y8 = molecular target: GORASP2, Q9H8Y8
SYNJ2BP, P57105 = molecular target: T4, SYNJ2BP, P57105
T4 sequence (P57105 8-110, limits assumed, looked up): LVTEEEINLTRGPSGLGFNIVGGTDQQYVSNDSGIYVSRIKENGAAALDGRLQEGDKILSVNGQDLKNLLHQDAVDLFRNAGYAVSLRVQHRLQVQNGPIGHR

TJP2_1, Q9UDY2 = molecular target: TJP2_1, Q9UDY2
Inadl_5, Q8NI35 = molecular target: Inadl_5, Q8NI35
Inadl_10, Q8NI35 = molecular target: Inadl_10, Q8NI35
LAP2, Q96RT1 = molecular target: LAP2, Q96RT1
LIN7B, Q9HAP6 = molecular target: T5, LIN7B, Q9HAP6
T5 sequence (Q9HAP6 88-185, limits assumed, looked up): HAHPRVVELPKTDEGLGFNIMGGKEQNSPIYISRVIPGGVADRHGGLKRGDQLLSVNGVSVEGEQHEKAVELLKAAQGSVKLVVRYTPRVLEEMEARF

HTRA1, Q92743 = molecular target: HTRA1, Q92743
RHPN1, Q8TCX5 = molecular target: T6, RHPN1, Q8TCX5
T6 sequence (Q8TCX5 508-602, limits assumed, looked up): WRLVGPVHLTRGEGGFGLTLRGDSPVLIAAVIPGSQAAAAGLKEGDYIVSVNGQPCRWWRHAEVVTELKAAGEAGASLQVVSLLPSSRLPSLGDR

PTPN13_1, Q12923 = molecular target: T7, PTPN13_1, Q12923
T7 sequence (Q12923 1088-1188, limits assumed, looked up): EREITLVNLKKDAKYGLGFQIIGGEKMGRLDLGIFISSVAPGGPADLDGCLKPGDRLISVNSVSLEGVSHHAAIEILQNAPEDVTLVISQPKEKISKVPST

GRIP1_2, Q9Y3R0 = molecular target: T8, GRIP1_2, Q9Y3R0
T8 sequence (Q9Y3R0 145-248, limits assumed, looked up): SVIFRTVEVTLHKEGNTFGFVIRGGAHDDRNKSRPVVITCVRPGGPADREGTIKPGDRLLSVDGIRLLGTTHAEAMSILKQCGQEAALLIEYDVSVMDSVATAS

Inadl_9, Q8NI35 = molecular target: Inadl_9, Q8NI35
DLG3_2, Q92796 = molecular target: T9, DLG3_2, Q92796
T9 sequence (Q92796 221-321, limits assumed, looked up): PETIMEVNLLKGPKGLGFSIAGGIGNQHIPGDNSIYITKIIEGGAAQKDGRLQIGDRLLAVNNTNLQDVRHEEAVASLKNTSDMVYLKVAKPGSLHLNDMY

IL16_1, Q14005 = molecular target: IL16_1, Q14005
NHERF4_4, Q86UT5 = molecular target: NHERF4_4, Q86UT5
NOS1, P29475 = molecular target: NOS1, P29475
DFNB31_1, Q9P202 = molecular target: T10, DFNB31_1, Q9P202
T10 sequence (Q9P202 135-233, limits assumed, looked up): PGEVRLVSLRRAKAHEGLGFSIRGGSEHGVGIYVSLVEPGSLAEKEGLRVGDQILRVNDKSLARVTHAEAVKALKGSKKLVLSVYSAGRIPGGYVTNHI

HTRA3, P83110 = molecular target: T11, HTRA3, P83110
T11 sequence (P83110 354-453, limits assumed, looked up): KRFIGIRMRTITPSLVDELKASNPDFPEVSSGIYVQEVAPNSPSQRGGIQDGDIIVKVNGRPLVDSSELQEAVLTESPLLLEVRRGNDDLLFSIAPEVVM

DLG1_3, Q12959 = molecular target: DLG1_3, Q12959
TJP1_3, Q07157 = molecular target: TJP1_3, Q07157
MPDZ_10, O75970 = molecular target: T12, MPDZ_10, O75970
T12 sequence (O75970 1624-1722, limits assumed, looked up): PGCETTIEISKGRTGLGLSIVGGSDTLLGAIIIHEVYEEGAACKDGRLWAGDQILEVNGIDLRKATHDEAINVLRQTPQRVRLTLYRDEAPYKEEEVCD

Sequence of LAP2, Q96RT1 (Q96RT1 other isoform, or with tags, fused parts or gaps): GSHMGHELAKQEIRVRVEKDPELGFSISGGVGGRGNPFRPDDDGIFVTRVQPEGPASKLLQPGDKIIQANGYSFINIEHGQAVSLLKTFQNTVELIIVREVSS
Sequence of DLG1_3, Q12959 (Q12959 457-571): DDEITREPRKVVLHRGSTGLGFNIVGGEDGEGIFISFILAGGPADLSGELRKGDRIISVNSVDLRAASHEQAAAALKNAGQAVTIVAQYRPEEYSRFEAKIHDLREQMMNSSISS
Sequence of TJP2_1, Q9UDY2 (Q9UDY2 24-128): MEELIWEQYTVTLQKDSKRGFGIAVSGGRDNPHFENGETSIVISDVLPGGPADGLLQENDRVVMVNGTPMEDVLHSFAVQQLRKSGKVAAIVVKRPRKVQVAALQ
Sequence of HTRA1, Q92743 (Q92743 360-477): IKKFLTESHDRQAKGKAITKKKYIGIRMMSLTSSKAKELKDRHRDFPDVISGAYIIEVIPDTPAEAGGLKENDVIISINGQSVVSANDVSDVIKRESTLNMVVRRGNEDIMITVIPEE
Sequence of TJP1_3, Q07157 (Q07157 416-512): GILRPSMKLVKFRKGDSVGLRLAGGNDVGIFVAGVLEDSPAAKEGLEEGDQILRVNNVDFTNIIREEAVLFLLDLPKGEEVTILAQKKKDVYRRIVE
Sequence of NHERF4_4, Q86UT5 (Q86UT5 464-550): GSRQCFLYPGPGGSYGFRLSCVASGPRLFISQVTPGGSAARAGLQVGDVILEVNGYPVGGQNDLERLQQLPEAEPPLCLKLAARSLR
Sequence of NOS1, P29475 (P29475 9-101): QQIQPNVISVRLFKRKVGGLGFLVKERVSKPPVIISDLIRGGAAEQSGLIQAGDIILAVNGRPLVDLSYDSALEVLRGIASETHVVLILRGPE
Sequence of Inadl_5, Q8NI35 (Q8NI35 673-780): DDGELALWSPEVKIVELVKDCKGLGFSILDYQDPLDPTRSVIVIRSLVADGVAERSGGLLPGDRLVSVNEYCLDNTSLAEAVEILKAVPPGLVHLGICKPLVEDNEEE
Sequence of Inadl_10, Q8NI35 (Q8NI35 1673-1763): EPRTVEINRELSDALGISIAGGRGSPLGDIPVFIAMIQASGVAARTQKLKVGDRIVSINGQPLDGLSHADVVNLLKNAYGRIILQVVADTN
Sequence of Inadl_9, Q8NI35 (Q8NI35 1530-1615): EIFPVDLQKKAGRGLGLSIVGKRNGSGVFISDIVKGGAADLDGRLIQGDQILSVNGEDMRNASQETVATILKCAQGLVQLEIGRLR
Sequence of IL16_1, Q14005 (Q14005 210-306): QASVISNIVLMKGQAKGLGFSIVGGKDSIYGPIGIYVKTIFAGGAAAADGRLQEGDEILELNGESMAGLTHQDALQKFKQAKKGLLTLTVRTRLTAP
Sequence of DLG4_1, P78352 (P78352 62-152): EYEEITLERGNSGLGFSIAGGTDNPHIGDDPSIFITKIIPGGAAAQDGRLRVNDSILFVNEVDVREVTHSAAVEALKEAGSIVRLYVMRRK

Binder: CLREWCDAFL [BANF1, O75531]
pKd (DLG3_1, Q92796): below the threshold | pKd (PARD3B_1, Q8TEW8): 5.18 | pKd (GRIP1_4, Q9Y3R0): below the threshold | pKd (DLG4_1, P78352): below the threshold | pKd (GORASP2, Q9H8Y8): below the threshold | pKd (SYNJ2BP, P57105): below the threshold | pKd (TJP2_1, Q9UDY2): below the threshold | pKd (Inadl_5, Q8NI35): below the threshold | pKd (Inadl_10, Q8NI35): below the threshold | pKd (LAP2, Q96RT1): 3.69 | pKd (LIN7B, Q9HAP6): 3.94 | pKd (HTRA1, Q92743): 5.01 | pKd (RHPN1, Q8TCX5): below the threshold | pKd (PTPN13_1, Q12923): 3.58 | pKd (GRIP1_2, Q9Y3R0): below the threshold | pKd (Inadl_9, Q8NI35): below the threshold | pKd (DLG3_2, Q92796): 4.15 | pKd (IL16_1, Q14005): below the threshold | pKd (NHERF4_4, Q86UT5): 3.6 | pKd (NOS1, P29475): below the threshold | pKd (DFNB31_1, Q9P202): below the threshold | pKd (HTRA3, P83110): 4.17 | pKd (DLG1_3, Q12959): below the threshold | pKd (TJP1_3, Q07157): below the threshold | pKd (MPDZ_10, O75970): below the threshold

Binder: GSGAVEMESV [AQP6, Q13520]
pKd (DLG3_1, Q92796): below the threshold | pKd (PARD3B_1, Q8TEW8): below the threshold | pKd (GRIP1_4, Q9Y3R0): below the threshold | pKd (DLG4_1, P78352): below the threshold | pKd (GORASP2, Q9H8Y8): below the threshold | pKd (SYNJ2BP, P57105): below the threshold | pKd (TJP2_1, Q9UDY2): below the threshold | pKd (Inadl_5, Q8NI35): below the threshold | pKd (Inadl_10, Q8NI35): below the threshold | pKd (LAP2, Q96RT1): below the threshold | pKd (LIN7B, Q9HAP6): below the threshold | pKd (HTRA1, Q92743): below the threshold | pKd (RHPN1, Q8TCX5): below the threshold | pKd (PTPN13_1, Q12923): below the threshold | pKd (GRIP1_2, Q9Y3R0): below the threshold | pKd (Inadl_9, Q8NI35): below the threshold | pKd (DLG3_2, Q92796): below the threshold | pKd (IL16_1, Q14005): below the threshold | pKd (NHERF4_4, Q86UT5): below the threshold | pKd (NOS1, P29475): below the threshold | pKd (DFNB31_1, Q9P202): below the threshold | pKd (HTRA3, P83110): below the threshold | pKd (DLG1_3, Q12959): below the threshold | pKd (TJP1_3, Q07157): below the threshold | pKd (MPDZ_10, O75970): below the threshold

Continued, values first:

pKd (DLG3_1, Q92796): below the threshold | pKd (PARD3B_1, Q8TEW8): 4.74 | pKd (GRIP1_4, Q9Y3R0): below the threshold | pKd (DLG4_1, P78352): below the threshold | pKd (GORASP2, Q9H8Y8): below the threshold | pKd (SYNJ2BP, P57105): below the threshold | pKd (TJP2_1, Q9UDY2): below the threshold | pKd (Inadl_5, Q8NI35): below the threshold | pKd (Inadl_10, Q8NI35): below the threshold | pKd (LAP2, Q96RT1): below the threshold | pKd (LIN7B, Q9HAP6): below the threshold | pKd (HTRA1, Q92743): 4.48 | pKd (RHPN1, Q8TCX5): below the threshold | pKd (PTPN13_1, Q12923): 3.63 | pKd (GRIP1_2, Q9Y3R0): below the threshold | pKd (Inadl_9, Q8NI35): below the threshold | pKd (DLG3_2, Q92796): below the threshold | pKd (IL16_1, Q14005): below the threshold | pKd (NHERF4_4, Q86UT5): 3.5 | pKd (NOS1, P29475): 3.56 | pKd (DFNB31_1, Q9P202): below the threshold | pKd (HTRA3, P83110): below the threshold | pKd (DLG1_3, Q12959): below the threshold | pKd (TJP1_3, Q07157): below the threshold | pKd (MPDZ_10, O75970): below the threshold
Binder: EKKTLIGIKL [GOT1L1, Q8NHS2]

pKd (DLG3_1, Q92796): below the threshold | pKd (PARD3B_1, Q8TEW8): below the threshold | pKd (GRIP1_4, Q9Y3R0): below the threshold | pKd (DLG4_1, P78352): below the threshold | pKd (GORASP2, Q9H8Y8): below the threshold | pKd (SYNJ2BP, P57105): below the threshold | pKd (TJP2_1, Q9UDY2): below the threshold | pKd (Inadl_5, Q8NI35): below the threshold | pKd (Inadl_10, Q8NI35): below the threshold | pKd (LAP2, Q96RT1): below the threshold | pKd (LIN7B, Q9HAP6): below the threshold | pKd (HTRA1, Q92743): below the threshold | pKd (RHPN1, Q8TCX5): below the threshold | pKd (PTPN13_1, Q12923): below the threshold | pKd (GRIP1_2, Q9Y3R0): below the threshold | pKd (Inadl_9, Q8NI35): below the threshold | pKd (DLG3_2, Q92796): below the threshold | pKd (IL16_1, Q14005): below the threshold | pKd (NHERF4_4, Q86UT5): below the threshold | pKd (NOS1, P29475): below the threshold | pKd (DFNB31_1, Q9P202): below the threshold | pKd (HTRA3, P83110): below the threshold | pKd (DLG1_3, Q12959): below the threshold | pKd (TJP1_3, Q07157): below the threshold | pKd (MPDZ_10, O75970): below the threshold
Binder: IKAIVDLTGL [TRAF2, Q12933]

pKd (DLG3_1, Q92796): below the threshold | pKd (PARD3B_1, Q8TEW8): 3.71 | pKd (GRIP1_4, Q9Y3R0): below the threshold | pKd (DLG4_1, P78352): below the threshold | pKd (GORASP2, Q9H8Y8): below the threshold | pKd (SYNJ2BP, P57105): 3.76 | pKd (TJP2_1, Q9UDY2): below the threshold | pKd (Inadl_5, Q8NI35): below the threshold | pKd (Inadl_10, Q8NI35): below the threshold | pKd (LAP2, Q96RT1): below the threshold | pKd (LIN7B, Q9HAP6): below the threshold | pKd (HTRA1, Q92743): below the threshold | pKd (RHPN1, Q8TCX5): 3.92 | pKd (PTPN13_1, Q12923): below the threshold | pKd (GRIP1_2, Q9Y3R0): below the threshold | pKd (Inadl_9, Q8NI35): below the threshold | pKd (DLG3_2, Q92796): below the threshold | pKd (IL16_1, Q14005): below the threshold | pKd (NHERF4_4, Q86UT5): below the threshold | pKd (NOS1, P29475): below the threshold | pKd (DFNB31_1, Q9P202): below the threshold | pKd (HTRA3, P83110): below the threshold | pKd (DLG1_3, Q12959): below the threshold | pKd (TJP1_3, Q07157): below the threshold | pKd (MPDZ_10, O75970): below the threshold
Binder: SARSRLSSNL [HCN2, Q9UL51]

— paper PMC9482650, “Quantitative fragmentomics allow affinity mapping of interactomes” (Nature Communications, 2022)
